Experimental data: patent US6277617A, “Chemically modified enzymes” (Genencor International, Inc., priority 1997, dated 2001)
Where a chain is given by its changes, count along the chain named. Names and notes keep the numbering of the source.

B1: Bacillus lentus subtilisin, wild type (SBL-WT) (Lederbergia lenta) (protein)
chain: AQSVPWGISRVQAPAAHNRGLTGSGVKVAVLDTGISTHPDLNIRGGASFVPGEPSTQDGNGHGTHVAGTIAALNNSIGVLGVAPSAELYAVKVLGASGSGSVSSIAQGLEWAGNNGMHVANLSLGSPSPSATLEQAVNSATSRGVLVVAASGNSGAGSISYPARYANAMAVGATDQNNNRASFSQYGAGLDIVAPGVNVQSTYPGSTYASLNGTSMATPHVAGAAALVKQKNPSWSNVQIRNHLKNTATSLGSTNLYGSGLVNAEAATR
notes: made in house; host or cells: B. subtilis
B2: Bacillus lentus subtilisin (SBL) variant N62C (Lederbergia lenta; N60C) (protein)
chain: B1 chain with N60C
notes: as for B1

Substrate: C[C@H](NC(=O)CCC(=O)O)C(=O)N[C@@H](C)C(=O)N1CCC[C@H]1C(=O)N[C@@H](Cc1ccccc1)C(=O)Nc1ccc([N+](=O)[O-])cc1
Experiment: Hydrolysis of succinyl-L-Ala-L-Ala-L-Pro-L-Phe-p-nitroanilide, kinetic parameters
Format: biochemical, Bacillus lentus
Conditions: pH 7.5, 0.1 M sodium phosphate, 0.5 M NaCl, 1% DMSO, 25° C.
Protocol: Activity, including the kinetic parameters kcat, KM, and kcat /KM were measured for hydrolysis of the synthetic peptide substrate succinyl-L-Ala-L-Ala-L-Pro-L-Phe-p-nitroanilide using the method described in Bonneau, P. et al. (1991) J. Am. Chem. Soc., 113(3):1030. Briefly, a small aliquot of subtilisin variant stock solution was added to a 1 cm cuvette containing substrate dissolved in 0.1 M sodium phosphate buffer, pH 7.5, containing 0.5 M NaCl and 1% DMSO, and thermostated at 25° C. or similarly at pH 8.6, 0.1 M tris buffer containing 0.05% Tween™80 and 1% DMSO. The reaction progress was followed spectrophotometrically by monitoring the absorbance of the reaction product p-nitroaniline at 410 nm using a Perkin Elmer λ2 spectrophotometer (Δε410 8800 M^-1 cm^-1).
The modified enzymes were prepared as described above after site-directed mutagenesis to replace the amino acid of interest with a cysteine. The kinetic parameters were determined at pH 7.5 as described above. The precursor protease was a Bacillus lentus subtilisin (SBL-WT).
To examine the effects of chemical modification on the pH profile of SBL, seven modified N62C mutants were made as described above. 0.02M ethylene diamine buffers of ionic strength 0.05M (adjusted with KCl) were employed with 1.25×10^-4 M succinyl-AAPF-pNA substrate and Kcat /KM measurements were performed as described above. Kcat /KM reflects the pKa of His64, part of the catalytic triad for SBL, in the free enzyme and is unaffected by nonproductive binding modes. Fersht, A. E. (1985) Enzyme Structure and Mechanism 2 ed., Freeman (New York). pKa was calculated using Graphit (McGeary & Associates, Middletown Conn.). The shift in pKa reflects a shift in the pH profile of SBL. Representative pH profiles for SBL N62C-Scylcohexyl (N62C-Scy) and SBL-WT are shown in FIG. 3 ([E]=1×10^-7 to 5×10^-8 M at 25° C.). Points were done in duplicate.

| Protein | Km (other: SBL-WT) | kcat (other: SBL-WT) | kcat/Km (other: SBL-WT) | Km (other: N62C) | kcat (other: N62C) | kcat/Km (other: N62C) |
| --- | --- | --- | --- | --- | --- | --- |
| B1 | 550 µM | 48 s⁻¹ | 87000 M⁻¹ s⁻¹ |  |  |  |
| B2 |  |  |  | 1490 µM | 61 s⁻¹ | 41000 M⁻¹ s⁻¹ |
